Assay results published in PMC4757451.

Substrate: NC(=O)N1c2ccccc2C=Cc2ccccc21
Assay: Steady-state NADPH oxidation by CYP3A4 Nanodiscs with CPR
Type: biochemical, human
Conditions: other: at 30 µM PGS; at 200 µM CBZ; pH 7.4; 37.0 °C

B1: CYP3A4 (Homo sapiens; S18F) (protein)
chain: MALLLAVFLVLLYLYGTHSHGLFKKLGIPGPTPLPFLGNILSYHKGFCMFDMECHKKYGKVWGFYDGQQPVLAITDPDMIKTVLVKECYSVFTNRRPFGPVGFMKSAISIAEDEEWKRLRSLLSPTFTSGKLKEMVPIIAQYGDVLVRNLRREAETGKPVTLKDVFGAYSMDVITSTSFGVNIDSLNNPQDPFVENTKKLLRFDFLDPFFLSITVFPFLIPILEVLNICVFPREVTNFLRKSVKRMKESRLEDTQKHRVDFLQLMIDSQNSKETESHKALSDLELVAQSIIFIFAGYETTSSVLSFIMYELATHPDVQQKLQEEIDAVLPNKAPPTYDTVLQMEYLDMVVNETLRLFPIAMRLERVCKKDVEINGMFIPKGVVVMIPSYALHRDPKYWTEPEKFLPERFSKKNKDNIDPYIYTPFGSGPRNCIGMRFALMNMKLALIRVLQNFSFKPCKETQIPLKLSLGGLLQPEKPVVLKVESRDGTVSGA
- kcat: 2.05 s⁻¹
